We go through 1 substance from publication PMC9454918.

The test has as its target recombinant goose FST protein (148-amino-acid peptide of goose follistatin, residues 93-240) (goose). As to the kind of experiment: SDS-PAGE and Western blot; purified recombinant protein on an SDS-PAGE gel stained with Coomassie blue; Western blot with an anti-His tag antibody. On the technique in general: Immunoblotting shows a protein as a band on a membrane.

In the case of “recombinant goose FST protein (148-amino-acid peptide of goose follistatin, residues 93-240) (domain or fragment)”, the stoichiometry N amounted to 2.

By stoichiometry N is commonly meant the number of molecules, sites or subunits per partner or assembly.
